Test results: publication PMC6319338, “Insight into the PTEN – p85α interaction and lipid binding properties of the p85α BH domain” (Oncotarget, 2018)

Target: T1, purified p85α wild type (cleaved from GST) (bovine, UniProt P23727 1-724)
T1 construct: p85α (PI3K regulatory subunit alpha), bovine, residues 1-724; also called wild type p85α; source: E. coli, expressed as GST fusion, cleaved from GST, purified; not shown: GST, N-terminal, cleaved
Experiment: pull-down; GST-PTEN (wild type or mutant; 5 μg) immobilized on glutathione Sepharose beads; precleared purified p85α cleaved from GST (5 μg in 1% milk, 500 μl PBS pH 7.3); 30 minutes at room temperature; 5 washes; anti-p85α immunoblot, quantified with Odyssey software
Conditions: both partners purified

binding result: binds
B1: GST-PTEN wild type (1–403) (natural protein)
chain: not shown
notes: PTEN, human, residues 1-403 (74 kDa as GST fusion); vector pGEX6P1; The activity assay used His6-PTEN instead; also called wild type PTEN; source: E. coli, GST fusion immobilized on glutathione Sepharose beads
